Measurements published in paper PMC8280269, “A novel mycothiol-dependent thiol–disulfide reductase in Corynebacterium glutamicum involving oxidative stress resistance” (3 Biotech, 2021).
Residue numbers refer to the chain shown, from its start. Names may count otherwise.

B1: Mrx1 (Corynebacterium glutamicum ATCC 13032) (protein)
chain: MSNVTIYATDWCPYCRSLLKGLDGQEYDLIDVDQDEEAGEWVKSVNDGNRIVPTVRYSDGTHATNPLAAEVIAKIEALA
notes: pET28a-mrx1, N-terminal His6, E. coli BL21(DE3); tag cut for activity assays
B2: NCgl2478 (Corynebacterium glutamicum ATCC 13032) (protein)
chain: MSIEFSAPAKMKIEVWSDIMCPFCYIGKKRLDDALSTFDQAGRIEVEYKSFELMPGLETHPLRSDVEYLADAKGMSLEQARQMNGQVQAMAQATGLEMNPDETIAANTINAHRLTHFAKAHGKQQEVAQELFKAHFVDGKNVDDLDVLVSIAAEVGLDASAAREALESDVYTNEVQQDVHEARQLGVQGVPFFVFDRKYAINGAQQEEVFTGTVEKAFEEWAAENPVSPFEVIDGQSCSVDGTCN
notes: full-length, N-terminal His6 from pET28a, E. coli BL21(DE3); tag cut with enterokinase for activity assays
B3: NCgl2478 (Corynebacterium glutamicum ATCC 13032; C24S) (protein)
chain: B2 chain with C24S
notes: as for B2

Key:
Cys24 = assay: UV-vis; settings: 10 °C; poly-buffer: 10 mM sodium acetate, 10 mM sodium phosphate, 10 mM sodium borate, 10 mM sodium citrate, starting pH 9.4, titrated with 100 mM HCl; 20 μM protein; reduced protein, referenced to the oxidized protein (Cys mutants oxidized with tenfold excess H2O2); no ligand
Cys21 = assay: UV-vis; settings: 10 °C; poly-buffer: 10 mM sodium acetate, 10 mM sodium phosphate, 10 mM sodium borate, 10 mM sodium citrate, starting pH 9.4, titrated with 100 mM HCl; 20 μM protein; reduced protein, referenced to the oxidized protein (Cys mutants oxidized with tenfold excess H2O2); no ligand
NCgl2478 = biological target: T1, NCgl2478 (Corynebacterium glutamicum, UniProt Q8NMK6, C24S); assay: NBD-Cl labelling and DTNB thiol count after H2O2 with MSH; format: binding; settings: covalent; mixed disulfide at Cys21 formed from the H2O2-oxidised sulfenic acid
T1 construct: gene Cgl2567; full-length, N-terminal His6 from pET28a, E. coli BL21(DE3); tag cut with enterokinase for activity assays
T1 sequence (Q8NMK6 1-245 C24S): B2 chain with C24S

purified protein = substrate: CC(=O)N[C@@H](CSSCCO)C(=O)N[C@H]1[C@@H](O[C@@H]2[C@H](O)[C@H](O)[C@@H](O)[C@H](O)[C@H]2O)O[C@H](CO)[C@@H](O)[C@@H]1O; assay: purified protein; format: biochemical, Corynebacterium glutamicum; settings: 500 μM MSH, 5 μM Mtr, 250 μM NADPH, 50 mM potassium phosphate pH 7.6, 25 °C, substrate formed in situ from HED and MSH

Molecule	pKa (Cys24)	pKa (Cys21)	NBD-Cl labelling and DTNB thiol count after H2O2 with MSH (NCgl2478)	Km (purified protein)	kcat (purified protein)
NCgl2478 (DsbA-like mycoredoxin / mycothiol-dependent thiol-disulfide reductase, annotated dithiol-disulfide isomerase DsbA) (Corynebacterium glutamicum (RES167, derived from ATCC 13032))	8.09	less than 6			
CC(=O)N[C@@H](CS)C(=O)NC1[C@@H](O[C@@H]2[C@H](O)[C@H](O)[C@@H](O)[C@H](O)[C@H]2O)O[C@H](CO)[C@@H](O)[C@@H]1O (stereo partly drawn) [MSH, 1D-myo-inosityl-2-[N-acetyl-L-cysteinyl] amido-2-deoxy-α-D-glucopyranoside]			MSH reacted with NCgl2478:C24S–SOH to form NCgl2478:C24S–SSM		
B1				540 ± 110 µM	103.81 ± 3.14 s⁻¹
B2				510 ± 50 µM	8.55 ± 0.19 s⁻¹
B3				460 ± 50 µM	11.37 ± 0.31 s⁻¹
